Publication PMC2926129 (Regulatory peptides, 2010)
Ends that are not written are not given here.

Biological target: T1, rabbit calcitonin receptor (rabbit, UniProt P79222 23-474)
T1 sequence (looked up): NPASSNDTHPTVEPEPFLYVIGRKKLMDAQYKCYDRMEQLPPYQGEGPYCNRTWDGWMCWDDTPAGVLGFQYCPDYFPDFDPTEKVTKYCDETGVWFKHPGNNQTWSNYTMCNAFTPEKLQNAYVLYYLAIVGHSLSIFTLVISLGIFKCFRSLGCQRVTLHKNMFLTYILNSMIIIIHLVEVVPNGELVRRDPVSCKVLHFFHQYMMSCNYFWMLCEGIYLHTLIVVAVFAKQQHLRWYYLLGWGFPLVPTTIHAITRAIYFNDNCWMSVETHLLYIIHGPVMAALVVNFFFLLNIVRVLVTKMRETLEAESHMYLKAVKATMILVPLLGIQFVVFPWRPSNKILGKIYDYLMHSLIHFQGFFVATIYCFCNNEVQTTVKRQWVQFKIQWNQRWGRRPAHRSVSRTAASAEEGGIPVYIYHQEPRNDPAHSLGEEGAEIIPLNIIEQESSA
Test: radioligand binding

- Ki: 0.61 nM
Binder: CGNLSTCMLGTYTQDFNKFHTFPQTAIGVGAP (ligand, UniProt P01258 85-116, looked up, ends and bridges not checked; cysteine pairing not given here) [human calcitonin]
